Assay results as given in the DeepSol protein solubility set.

Assay: soluble on expression in E. coli; label from the status in PepcDB or PDB records

Sequence | soluble on expression in E. coli
MGSDKIHHHHHHMFEIKTDDFEGIEIVKLINTVSGEYASIIPSFGGNIHELVLQKHNILHDVIYTNKNKEELSGFYSNLYRGAKLNPFSNRIDKGSYIFENISYSIPLNDAGIHALHGFVWNKPFSITASKTSFEFATLTLSYTHPKDSADFPFSYTLLVTYKLCIEGLMVTTQITNTSPTAIPMGDGWHPYLTLGSSINTLKLQIPSVQKIETTDTLIPTGKIIEDISFFEPALLGERELDNAFVLDSSVEKAETLLFDEEEDLTLVVWQQTDTYPFVHVYTPSDRMSVAIEPCSAIPDAFNRNMIETTLKPAEKKSYVFGIQLR | not soluble
MLFLDSVAMKEKPEGREEYPFSVPAMRHLERLEFKTPITFFAGNNGSGKSTLLEGLAAGMTAYAIGNHGDVKGDLYLQHAETVAKAFYFARKKYPKIRMFLRAEDVLGYIRRQNENALDDFRWEREKALKKGEDFPEETPEIFRGIVRNNSLDRRSHGEGFLDIMHRRLHGAGLYFLDEPESPLSPQKQLELAAIIRQAADSGGQLIIATHSPVLLAIPEATIYYFDEDGITERLYDELENIAFLRRFLDRPSKYLDDLEHHHHHH | soluble
MIALFSVLIAFLTPQANAVISGELNCTTYNGTAFVYTPSATACSNAISDSSCAALYPASDPATGYPAPGNDVERPFACYTTATPTPAPVVPDMRSAALKNCARTCGLCCKTADFDCPNVQFPRLTCSTITNEQCRSSVWRTIIATDCPSACGFCNQGGCVDGVMDCANDLSICNSVGMQEFVNQYCQRTCNRCSSSTAATGTGGSCGGRYIADSSTACAAWKLNGFCTNTFYTAAQRRSYCATTCSLC | not soluble
MGSDKIHHHHHHMPYTIPNNSCVGCDNCRPQCPTGAIKIEDNEYWVDPGLCNNCEGYYSEPQCVIACPTKSPIPWQAKKGRCKVEPRDSTSLDLFSNGKNNPFASAIAIWEACNVLGQRTSLHWETDEDGYLCYSRQVNQGKGAIAFHIQDPFQVNDKATDIAAIEALDIRAACIHLIFAGYATALEQPWEQEFAIDERQIEKYLGMEKRKDLSKAAKLALMKNLVQQACSLIISIDWPQQGRINGFSVTNSRLWHLVDIQHHFQEDNHGCKYLIGLTFKVKAGLWAQYFLNKQACKERTAFYQYGSLPKTLLTTVMSIWQQHEGAVRLMLWLLFKTKMGKEQRITIPTLLRIAYGEEKVALASRQREERKRLLRTFESDLEILNHYGMKPLFDPVTYPPEIQPLWAKLIDLPEDPDEALEFWTNDGGSETRLTDTGPRGKWNLLMNARILAFELPPEWEQQISESEKKKTRTAKAKKKTKATNDLLGEQILQARKNLNLSQRELAKLTGKSQSWIRDIENGRLKAKLEDQLLLRKVLNMASS | not soluble
MGSDKIHHHHHHMIYFLCSFYGEAEGIISYYKLRKEAVHSSFQIFSSEEIKLIISGTGKINAACAVGYIGSLKSKLSKDLFVNVGICGSRSRTVGECVFINKIKDVDTNKEFYPDILLKHDFEEGNLQTFSIPVTTGQVDDVCDMEGSAFFQSASKFFQKHEIALIKIVSDNANNVNVSGELVRNLIKKSMEKINSYIENYKRIFHEKNFLSDVCTGNIEKIVSRLRLTESQSIQLKKAAVAYKIRNGKEFDFEGFLSLEVKIKNDGRKYFSNLIGSMWK | not soluble
GAAAGVAAWLPFARAAAIGWMPVANCPMPLAPADKNKRQDELIVLNVSGRRFQTWRTTLERYPDTLLGSTEKEFFFNEDTKEYFFDRDPEVFRCVLNFYRTGKLHYPRYECISAYDDELAFYGILPEIIGDCCYEEYKDRKREN | soluble
MGSDKIHHHHHHMEEVINGILIREVETKNIMTKSSLPVGGYSVNPYVGCTHACKYCYASFMKRFTGHKEEWGTFLDVKHWPEIKNPKKYAGQRVVIGSVTDGYNPQEEQFGNTRKLLEQLIGSDADILICTKSDLVVRDIDLLKKLGRVTVSWSINTLDENFKNDMDSASSIERRISAMKQVYESGIRTVCFVSPVFPGITDFEAIFERVKDQCDLFWLENLNLRGGFKKTIMDYITGQYPDLVPLYDEIYNKHNRSYFEALEVKAEKMAKKYDCAFVDNEMPYGRVPQGHPVIVDYFYHEEIRGTENTGKRNR | not soluble
MSATAKAPYSKTFIRSCILYEVLQKKPVFEAYQKICRSLKERISYQEFDYWFYKFYNGNHDLEDEISDEQSLVNPLLDMSNNLSEKEWCRSFVQFFHGLPPRPNKKPAFSLQSMPRKVWQELCSKLEPCDRLVAKKVTRRFRQTIDEQDNLFNTLGICFEDDKTRIFFNEKTFHYTSVGNECRITLDLFTKEDAIKIKDILTRSDNFKYANFESGNFDPIEIANVFIPNYQSNHWPIINYMRHNKKFLLKITPMTFQIKKID | not soluble
MEFMMEIQGNRKELMVSKIKNGTVIDHIPAGRAFAVLNVLGIKGHEGFRIALVINVDSKKMGKKDIVKIEDKEISDTEANLITLIAPTATINIVREYEVVKKTKLEVPKVVKGILKCPNPYCITSNDVEAIPTFKTLTEKPLKMRCEYCETIIDENEIMSQILGANNK | soluble
MINLTHIASSLARAALSDSTKPKMERAINVASHIAGKVALQVTSSLLEQKGLLNERQQKGLSMILKALSGKEPVNNVETHEGGGRFNLARAAFDVASVVWERDKSMHNVMSFLGVSDSKGKMLFSLGKKLADAMAKPEPGKDNSEATNARHAYFSSNLKLNKLMNDLTDQVFNKIR | not soluble
MGSDKIHHHHHHMDSEIIKALKRFGFTQQESIMYVTLCRHGALTGYEAAKLAGISRSNAYAALSSLVEKGGAVVASDDTSKYVPTPRKELLVTIRRHCDETLEFLEQHLPEEQPVEMPYLTVTGYQNTMDKVRNMLRLAQLRVYISMHSGNAAQLKEDMAACAARGLKVVILSDADPQISGAIFMHNAAGTGHIKLIADTREVITGVVDQAARTGQCLYSANEHLVYLMREALLNEIELIKIRSGMSGAEPEESPTRGK | not soluble
MVTEKTLRTCEQGHEYYKSSDCPTCPVCEKERKPKESFLSLLSAPARRALEHRGIQTVEELSKYSEKEILKLHGMGPASLPKLKKVLEESWLSFK | not soluble
MGFQLRGDYLLDDDLQTLYVSSSDIHGELTRLVKLNLTRNQVNVLKHSKADVPELRILSDKLDRRTLSLFSNGQVAEYELIYSVHYQVRFTGEDARDFRFELYRDYQDDPNIALAKSRELSLLLSEMRTSAADKILRDLARIQRLEHHHHHH | soluble
MNCYNKFAHIYDKLIRADVDYKKWSDFIIEKCVENNLVFDDYLDLACGTGNLTENLCPKFKNTWAVDLSQEMLSEAENKFRSQGLKPRLACQDISNLNINRKFDLITCCLDSTNYIIDSDDLKKYFKAVSNHLKEGGVFIFDINSYYKLSQVLGNNDFNYDDDEVFYYWENQFEDDLVSMYISFFVRDGEFYKRFDEEHEERAYKEEDIEKYLKHGQLNILDKVDCYSNKKVEKFTERITYLVKLGGKSNGR | soluble
MKNMIKAASLGLIILSSSMMANAAEAAQKIGYINTAQVFQALPQREVVLQKMQEEFKDKAAELQAIQADAKTKIEKLKRDGQLMGQDEVEKLRIEIGQLDSKYKIKAQALEQASARREAEEKQKLFKVIQDAVKKVAEKEGYDIVLDTSSMQYGKPEHNLSEKVIKAIK | not soluble
MGSDKIHHHHHHMKTRDKIIQASIELFNEQGERNVTTNHIAAHLAISPGNLYYHFRNKEDIILSIYEEYARSLLLETLPKVSSEVKPLDSLILYMDSVFQTTMKFRFFYSNLPVLLDKNPILREKYVEVQQSISERVSQLLISLRAADYIDFNDDELADIVSILRLINTFWVSFHQTQTIVNEVNDSVFYQGVLKILVILRPYTKAHAISELNHARDVYQQRYREEAETA | not soluble
MTTQFKPELLSPAGSLKNMRYAFAYGADAVYAGQPRYSLRVRNNEFNHANLKIGIDEAHSLGKKFYVVVNIAPHNSKLKTFIKDLQPVIDMKPDALIMSDPGLIMLVRENFPNIDIHLSVQANAVNWATVKFWKQMGLTRVILSRELSIDEIAEIRQQVPDIELEIFVHGALCMAYSGRCLLSGYINKRDPNQGTCTNACRWEYKMEEGTTDDVGNIVPKIDPAQQIEVKNVAPTLGEGAVTDKVFLYTESQKPDEQMTAFEDKHGTYFMNSKDLRAVQHVEKLTALGVHSLKIEGRTKSFYYCARTAQVYRKAIDDAAAGKPFDESLMDTLESLAHRGYTEGFLRRHTHDEYQNYEYGYSISDRQQFVGEFTGKRNEQGMAEVAVKNKFLLGDNVEMMTPQGNINFKIEKMLNRKNETVDAALGDGHFVFLNVPQDINLNYALLMRNLVNTNTRNPHSN | not soluble
